In US20020081603:

Tested on: acetylated histone H3
Conditions: ChIP with qPCR

Row | Substance | binding signal (reference (10-fold lower than treated)) (5mC in CpG island, untreated HCT15 cells) | binding signal (fold enrichment vs untreated) (HCT15 cells treated with 2 uM 5-azacytidine)
1 | p16 5'-UTR CpG island region, methylated (untreated HCT15) | 1 | –
2 | p16 5'-UTR CpG island region, unmethylated (5-azacytidine-treated HCT15) | – | 10
